{
  "source": "patent US20260062456A1",
  "about": "(ALPINE IMMUNE SCIENCES, published 2026)",
  "binders": {"B1": {"name": "PD-L1/CD155 Stack 3: (CD155 IgV) (G4S)3 (PD-L1 IgV) (G4S)2 Fc (Fc fusion)", "chain": "WPPPGTGDVVVQAPTQVSGFLGDSVTLPCYLQVPNMEVTHVSQLTWARHGESGSMAVFHQTQGPWYAESKRLEFVAARLGAELRNASLRMFGLRVEDEGNYTCQFVTFPQRSRSVDIWLRVLGGGGSGGGGSGGGGSFTVTVPKDLYVVEYGSNMTIECKFPVEKQLDLAALIVYWEMEGKDIIQFVHGEEDQKAQHSSYRQRARLLKDQLSLGNAALQITDVKLQDAGVYRCMISYGGGADYKRITVKVNAGGGGSGGGGSEPKSSDKTHTCPPCPAPEAEGAPSVFLFPPKPKDTLMISRTPEVTCVVVDVSHEDPEVKFNWYVDGVEVHNAKTKPREEQYNSTYRVVSVLTVLHQDWLNGKEYKCKVSNKALPAPIEKTISKAKGQPREPQVYTLPPSRDELTKNQVSLTCLVKGFYPSDIAVEWESNGQPENNYKTTPPVLDSDGSFFLYSKLTVDKSRWQQGNVFSCSVMHEALHNHYTQKSLSLSPGK"}, "B2": {"name": "PD-L1/CD155 Stack 4: (PD-L1 IgV) (G4S)3 (CD155 IgV) (G4S)2 Fc (Fc fusion)", "chain": "FTVTVPKDLYVVEYGSNMTIECKFPVEKQLDLAALIVYWEMEGKDIIQFVHGEEDQKAQHSSYRQRARLLKDQLSLGNAALQITDVKLQDAGVYRCMISYGGGADYKRITVKVNAGGGGSGGGGSGGGGSWPPPGTGDVVVQAPTQVSGFLGDSVTLPCYLQVPNMEVTHVSQLTWARHGESGSMAVFHQTQGPWYAESKRLEFVAARLGAELRNASLRMFGLRVEDEGNYTCQFVTFPQRSRSVDIWLRVLGGGGSGGGGSEPKSSDKTHTCPPCPAPEAEGAPSVFLFPPKPKDTLMISRTPEVTCVVVDVSHEDPEVKFNWYVDGVEVHNAKTKPREEQYNSTYRVVSVLTVLHQDWLNGKEYKCKVSNKALPAPIEKTISKAKGQPREPQVYTLPPSRDELTKNQVSLTCLVKGFYPSDIAVEWESNGQPENNYKTTPPVLDSDGSFFLYSKLTVDKSRWQQGNVFSCSVMHEALHNHYTQKSLSLSPGK"}, "B3": {"name": "CD112-IgV (Fc fusion, not shown: a dimerising Fc or GST)", "chain": "QDVRVQVLPEVRGQLGGTVELPCHLLPPVPGLYISLVTWQRPDAPANHQNVAAFHPKMGPSFPSPKPGSERLSFVSAKQSTGQDTEAELQDATLALHGLTVEDEGNYTCEFATFPKGSVRGMTWLRV"}, "B4": {"name": "PD-L1/CD155 Stack 1 (Fc fusion)", "chain": "WPPPGTGDVVVQAPTQVSGFLGDSVTLPCYLQVPNMEVTHVSQLTWARHGESGSMAVFHQTQGPWYAESKRLEFVAARLGAELRNASLRMFGLRVEDEGNYTCQFVTFPQRSRSVDIWLRVLGGGGSGGGGSEPKSSDKTHTCPPCPAPEAEGAPSVFLFPPKPKDTLMISRTPEVTCVVVDVSHEDPEVKFNWYVDGVEVHNAKTKPREEQYNSTYRVVSVLTVLHQDWLNGKEYKCKVSNKALPAPIEKTISKAKGQPREPQVYTLPPSRDELTKNQVSLTCLVKGFYPSDIAVEWESNGQPENNYKTTPPVLDSDGSFFLYSKLTVDKSRWQQGNVFSCSVMHEALHNHYTQKSLSLSPGKGGGGSGGGGSGGGGSFTVTVPKDLYVVEYGSNMTIECKFPVEKQLDLAALIVYWEMEGKDIIQFVHGEEDQKAQHSSYRQRARLLKDQLSLGNAALQITDVKLQDAGVYRCMISYGGGADYKRITVKVNA"}, "B5": {"name": "PD-L1/CD155 Stack 2 (Fc fusion)", "chain": "FTVTVPKDLYVVEYGSNMTIECKFPVEKQLDLAALIVYWEMEGKDIIQFVHGEEDQKAQHSSYRQRARLLKDQLSLGNAALQITDVKLQDAGVYRCMISYGGGADYKRITVKVNAGGGGSGGGGSEPKSSDKTHTCPPCPAPEAEGAPSVFLFPPKPKDTLMISRTPEVTCVVVDVSHEDPEVKFNWYVDGVEVHNAKTKPREEQYNSTYRVVSVLTVLHQDWLNGKEYKCKVSNKALPAPIEKTISKAKGQPREPQVYTLPPSRDELTKNQVSLTCLVKGFYPSDIAVEWESNGQPENNYKTTPPVLDSDGSFFLYSKLTVDKSRWQQGNVFSCSVMHEALHNHYTQKSLSLSPGKGGGGSGGGGSGGGGSWPPPGTGDVVVQAPTQVSGFLGDSVTLPCYLQVPNMEVTHVSQLTWARHGESGSMAVFHQTQGPWYAESKRLEFVAARLGAELRNASLRMFGLRVEDEGNYTCQFVTFPQRSRSVDIWLRVL"}, "B6": {"name": "PD-L1/CD155 Stack 3 (Fc fusion)", "chain": "B1 chain"}, "B7": {"name": "PD-L1/CD155 Stack 4 (Fc fusion)", "chain": "B2 chain"}, "B8": {"name": "Wild-type CD155-ECD-Fc (Fc fusion, not shown: a dimerising Fc or GST)", "chain": "WPPPGTGDVVVQAPTQVPGFLGDSVTLPCYLQVPNMEVTHVSQLTWARHGESGSMAVFHQTQGPSYSESKRLEFVAARLGAELRNASLRMFGLRVEDEGNYTCLFVTFPQGSRSVDIWLRVLAKPQNTAEVQKVQLTGEPVPMARCVSTGGRPPAQITWHSDLGGMPNTSQVPGFLSGTVTVTSLWILVPSSQVDGKNVTCKVEHESFEKPQLLTVNLTVYYPPEVSISGYDNNWYLGQNEATLTCDARSNPEPTGYNWSTTMGPLPPFAVAQGAQLLIRPVDKPINTTLICNVTNALGARQAELTVQVKEGPPSEHSGISRN"}, "B9": {"name": "WT CD80 ECD Fc (Fc fusion, not shown: a dimerising Fc or GST)", "chain": "VIHVTKEVKEVATLSCGHNVSVEELAQTRIYWQKEKKMVLTMMSGDMNIWPEYKNRTIFDITNNLSIVILALRPSDEGTYECVVLKYEKDAFKREHLAEVTLSVKADFPTPSISDFEIPTSNIRRIICSTSGGFPEPHLSWLENGEELNAINTTVSQDPETELYAVSSKLDFNMTTNHSFMCLIKYGHLRVNQTFNWNTTKQEHFPDN"}},
  "key": {"[1]": {"target": "T1, human TIGIT stably expressed on Jurkat/IL-2 reporter cells (Jurkat/TIGIT cells) (human, UniProt Q495A1 22-244)", "T1 sequence (looked up)": "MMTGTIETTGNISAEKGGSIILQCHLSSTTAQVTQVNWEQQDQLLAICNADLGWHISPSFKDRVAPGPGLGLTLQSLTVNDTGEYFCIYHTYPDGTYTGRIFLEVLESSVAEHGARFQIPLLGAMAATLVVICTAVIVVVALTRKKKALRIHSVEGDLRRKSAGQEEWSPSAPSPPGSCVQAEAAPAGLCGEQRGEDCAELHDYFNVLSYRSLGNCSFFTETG", "assay": "cell-based or functional assay"}, "[2]": {"target": "human PD-1 stably expressed on Jurkat/IL-2 reporter cells (Jurkat/PD-1 cells) (human, UniProt Q15116 25-288)", "sequence (Q15116 25-288)": "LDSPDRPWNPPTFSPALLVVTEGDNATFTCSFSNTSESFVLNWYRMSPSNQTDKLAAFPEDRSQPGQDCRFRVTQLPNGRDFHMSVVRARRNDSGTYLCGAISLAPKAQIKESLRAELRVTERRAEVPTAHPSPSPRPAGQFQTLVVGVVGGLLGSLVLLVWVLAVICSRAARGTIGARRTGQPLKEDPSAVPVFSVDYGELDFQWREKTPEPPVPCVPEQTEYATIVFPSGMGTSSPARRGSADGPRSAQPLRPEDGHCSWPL", "assay": "cell-based or functional assay"}, "[3]": {"target": "T2, CD96 (UniProt P40200 22-585, limits assumed)", "T2 sequence (looked up)": "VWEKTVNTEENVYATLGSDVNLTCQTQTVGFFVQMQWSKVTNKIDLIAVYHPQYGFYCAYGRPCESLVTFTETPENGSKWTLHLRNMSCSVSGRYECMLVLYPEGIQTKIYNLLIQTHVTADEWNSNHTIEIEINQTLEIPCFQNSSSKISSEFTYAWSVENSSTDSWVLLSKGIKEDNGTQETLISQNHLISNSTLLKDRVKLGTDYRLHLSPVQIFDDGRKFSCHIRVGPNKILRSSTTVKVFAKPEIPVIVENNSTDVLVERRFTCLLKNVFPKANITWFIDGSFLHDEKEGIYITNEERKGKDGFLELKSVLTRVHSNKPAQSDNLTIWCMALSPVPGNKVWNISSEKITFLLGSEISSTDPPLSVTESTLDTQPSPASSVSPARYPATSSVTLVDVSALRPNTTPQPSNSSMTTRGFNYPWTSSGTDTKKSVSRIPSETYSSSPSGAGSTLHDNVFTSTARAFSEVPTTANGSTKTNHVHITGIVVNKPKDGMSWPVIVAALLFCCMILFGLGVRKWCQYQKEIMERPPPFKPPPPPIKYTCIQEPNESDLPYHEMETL", "assay": "flow cytometry, cells expressing CD96"}, "[4]": {"target": "T3, human TIGIT stably expressed on Jurkat/IL-2 reporter cells (Jurkat/TIGIT cells) (human, UniProt Q495A1 22-244)", "T3 sequence": "T1 sequence (looked up)", "assay": "flow cytometry, Jurkat/TIGIT cells, 20 nM"}, "[5]": {"target": "human PD-1 stably expressed on Jurkat/IL-2 reporter cells (Jurkat/PD-1 cells) (human, UniProt Q15116 21-288)", "sequence (Q15116 21-288)": "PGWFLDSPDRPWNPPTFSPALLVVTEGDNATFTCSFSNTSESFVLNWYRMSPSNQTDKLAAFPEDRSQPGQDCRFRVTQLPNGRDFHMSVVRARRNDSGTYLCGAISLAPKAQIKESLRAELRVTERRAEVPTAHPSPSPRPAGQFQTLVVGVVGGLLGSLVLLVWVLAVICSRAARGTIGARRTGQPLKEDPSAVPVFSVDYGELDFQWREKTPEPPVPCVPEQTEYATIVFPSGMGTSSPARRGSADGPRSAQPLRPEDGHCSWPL", "assay": "flow cytometry, Jurkat/PD-1 cells, 20 nM"}, "[6]": {"target": "CD28 (UniProt P10747 19-220)", "assay": "flow cytometry, HEK293 cells transfected with CD28"}},
  "data": [
    {"binder": "B1", "values": [
      {"measurement": "Fold Increase Compared to non-stack variant CD155 IgV-Fc control", "setting": "[1]", "value": 1.3, "unit": "fold"},
      {"measurement": "Fold Increase Compared to non-stack variant PD-L1 IgV-Fc control", "setting": "[1]", "value": 0.5, "unit": "fold"},
      {"measurement": "Fold Increase Compared to variant PD-L1 IgV-Fc and variant CD155 IgV-Fc", "setting": "[1]", "value": 0.6, "unit": "fold"},
      {"measurement": "RLU", "setting": "[1]", "value": 434, "unit": "RLU"},
      {"measurement": "Fold Increase Compared to non-stack variant CD155 IgV-Fc control", "setting": "[2]", "value": 1.3, "unit": "fold"},
      {"measurement": "Fold Increase Compared to non-stack variant PD-L1 IgV-Fc control", "setting": "[2]", "value": 0.5, "unit": "fold"},
      {"measurement": "Fold Increase Compared to variant PD-L1 IgV-Fc and variant CD155 IgV-Fc", "setting": "[2]", "value": 0.6, "unit": "fold"},
      {"measurement": "RLU", "setting": "[2]", "value": 434, "unit": "RLU"}
    ]},
    {"binder": "B2", "values": [
      {"measurement": "Fold Increase Compared to non-stack variant CD155 IgV-Fc control", "setting": "[1]", "value": 5.6, "unit": "fold"},
      {"measurement": "Fold Increase Compared to non-stack variant PD-L1 IgV-Fc control", "setting": "[1]", "value": 2, "unit": "fold"},
      {"measurement": "Fold Increase Compared to variant PD-L1 IgV-Fc and variant CD155 IgV-Fc", "setting": "[1]", "value": 2.7, "unit": "fold"},
      {"measurement": "RLU", "setting": "[1]", "value": 1920, "unit": "RLU"},
      {"measurement": "Fold Increase Compared to non-stack variant CD155 IgV-Fc control", "setting": "[2]", "value": 5.6, "unit": "fold"},
      {"measurement": "Fold Increase Compared to non-stack variant PD-L1 IgV-Fc control", "setting": "[2]", "value": 2, "unit": "fold"},
      {"measurement": "Fold Increase Compared to variant PD-L1 IgV-Fc and variant CD155 IgV-Fc", "setting": "[2]", "value": 2.7, "unit": "fold"},
      {"measurement": "RLU", "setting": "[2]", "value": 1920, "unit": "RLU"}
    ]},
    {"binder": "B3", "values": [
      {"measurement": "MFI at 25 nM", "setting": "[3]", "value": 1170, "unit": "MFI"}
    ]},
    {"binder": "B4", "values": [
      {"measurement": "MFI at 20 nM", "setting": "[4]", "value": 80700, "unit": "MFI"},
      {"measurement": "MFI at 20 nM", "setting": "[5]", "value": 61800, "unit": "MFI"}
    ]},
    {"binder": "B5", "values": [
      {"measurement": "MFI at 20 nM", "setting": "[4]", "value": 36500, "unit": "MFI"},
      {"measurement": "MFI at 20 nM", "setting": "[5]", "value": 69800, "unit": "MFI"}
    ]},
    {"binder": "B6", "values": [
      {"measurement": "MFI at 20 nM", "setting": "[4]", "value": 81800, "unit": "MFI"},
      {"measurement": "MFI at 20 nM", "setting": "[5]", "value": 47300, "unit": "MFI"}
    ]},
    {"binder": "B7", "values": [
      {"measurement": "MFI at 20 nM", "setting": "[4]", "value": 60500, "unit": "MFI"},
      {"measurement": "MFI at 20 nM", "setting": "[5]", "value": 78000, "unit": "MFI"}
    ]},
    {"binder": "B8", "values": [
      {"measurement": "MFI at 20 nM", "setting": "[5]", "value": 511, "unit": "MFI"}
    ]},
    {"binder": "B9", "values": [
      {"measurement": "MFI at 66.6 nM", "setting": "[6]", "value": 3070, "unit": "MFI"}
    ]}
  ]
}
